# Data as given in the supplement of paper PMC9170038.
# Tested on: K4 kissing-loop RNA reporter
# Experiment: apparent KD of K4 kissing-loop reporter; higher = weaker reporter binding
# Settings: Eterna round: R107
# Protocol: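 RNA-MaP round R107: designed RNA switches with theophylline, tryptophan, arginine or FMN aptamers are transcribed on-chip within common flanks. They are titrated with a labelled K4 kissing-loop RNA reporter in RNA-MaP buffer (100 mM Tris pH 7.5, 80 mM KCl, 4 mM MgCl2), without ligand or with the indicated ligand. Median apparent KD per design.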
# [1] = input ligand: theophylline 20 uM
# [2] = input ligand: tryptophan 2.4 mM
# 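Note: bound reporter read as fluorescence of individual clusters on recovered sequencing chips by microscopy, with normalized cluster intensities fitted with a binding model.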
Sequence,apparent KD of K4 kissing-loop reporter (input ligand: FMN 200 uM),apparent KD of K4 kissing-loop reporter (input ligand: arginine 13.2 mM),apparent KD of K4 kissing-loop reporter (input ligand: none),apparent KD of K4 kissing-loop reporter [1],apparent KD of K4 kissing-loop reporter [2]
AGAUCUAAGCUGAGUUAGUCACCAUAAAGCAAGGAUAUUCCACGAAGAAGAAGGUGCAUCAUCCAUAGUGAUGUUAUGGCACGGG [theeternabot_sameState_KL_FMN_A_7],0.687 µM,0.548 µM,0.807 µM,0.672 µM,0.574 µM
UAAAUUAAGCUUUGCUGAUUAAUAAGCGAUACCAGCAAAUAAUGAUGCCCUUGGCAGCGUUAUAAUCUAGUGAUGUUAGAUUAGU [Not much to say about this one],0.0926 µM,0.106 µM,0.101 µM,0.103 µM,0.085 µM
UGUCAUUGGUCGGCCGCCACUAGGACCGGGUUUUACCUAGUGAUGUUAGUAUAAACGGCCGCCACUAGGACCGGGACCGAUGACU [KL-SSTryp-B24 #DoubleAptamer],0.846 µM,0.447 µM,0.547 µM,0.434 µM,0.122 µM
UUUAUAAUGUCGGCCGCCACUGGAUUAAUAUUUGUAUAAUCUAGUUCUAAGUGAUGUUUAGAGUCCAGGACCGGGACAUUUGUUA [#09 K4 Tryptophan B Exclusion],0.395 µM,0.282 µM,0.3 µM,0.311 µM,0.212 µM
GGUGUUGUUUGUGCCGUCUUCCUCGUUCCUCGAGGACCGGUACGGCCGCCACUCGAGUGAUGUUUGGGUAGCGAUCCCUGUUAGU [Bdazzled - #10 Exc. Tryptophan A],0.695 µM,0.541 µM,0.647 µM,0.602 µM,0.582 µM
UAUAAUUCGGCGGCCGCCACUGACCAUAGCCUUCGAUGGCCAGUGAUGUUGGCCUCUGGCUCUAACAGGACCGGGCCGAAUUGCG [Aririmaus],0.228 µM,0.179 µM,0.26 µM,0.277 µM,0.135 µM
AGGUCCGAGCCCGGAAGGGCUCGGACCUGUUAGGAUAUGACGUUAUUCAGAAGGGAUGGGUGGAGUGAUGUUCCACCCGAGAGGG [#2 Same State - FMN A Attempt #17 (HarryS)],0.106 µM,0.103 µM,0.1 µM,0.108 µM,0.0983 µM
AACCGAGGUAAUCCACAAUGAUUAGAAGAUACCAGAUAUAUAAAUAUCCCUUGGCAGCUUUGAAUGAGUGAUGUUCAUUUGUCAU [KL-SSTheo-A11],0.126 µM,0.207 µM,0.159 µM,0.214 µM,0.104 µM
AAAAUAAUCCAGUGAUGUUGGUAUCCAGAUACCAGCCACGAAAGUGGCCCUUGGCAGCUGUAGGACGUACAAAUAAGUACGUCCA [#OpenEnded 7 #StaticStem #K4Early],0.361 µM,0.175 µM,0.345 µM,0.486 µM,0.444 µM
GCCGUAGAUGGAAGGAGCGUGGUGGACUCGUGAAGUGAUGUUUCAAGUCGUUAUGCCCAACCACAGGUAGGUCGCCAUCUACGGC,0.277 µM,0.204 µM,0.27 µM,0.231 µM,0.251 µM
AUUAAUUUCAGAGGAUAUCGUUAUUUUUUAUAGUAUAUUCAAUUAUGCAGUGAUGUUGCUAUUAAUCGAGAAGGCUGAUUUAUAA [JR_ExcFMNB_Sub002],0.179 µM,0.204 µM,0.156 µM,0.25 µM,0.112 µM
AGGAGCGUGGGAUGGAAAUCGCACGCUCCUCGAGGACCGGUACGGCCGCCACUCGCUCGCGCCGAGUGAUGUUCGGCCGGCGAAG [#2 Same State - Tryptophan A Attempt #15 (HarryS)],0.579 µM,0.194 µM,0.128 µM,0.129 µM,0.226 µM
UGUCAUUGGUCGGCCGCCACUUCAUAAAGAGUGAUGUUCUGAAAGACGGAUCGAAAGAUCUGUCGAAGGACCGGGACCGAUGACU [FiskerMod 1 - Jieux - Same State - Tryptophan B],1.16 µM,1.2 µM,2.08 µM,1.43 µM,0.236 µM
UUUUUAAUCGCAGAUACCAGUCCAGAAUAAAUACUAUAGUGAUGUUAUAUAUAAGGAAAGGACCCUUGGCAGCUGUACUAUAUUU [AstrosSsTheB#8],0.411 µM,0.322 µM,0.392 µM,0.245 µM,0.346 µM
GCGGGCGGCUGAAGGAGCGGGCGGGCCCGAGUGAUGUUCGGGUGGGCUGUGAGGCCCGGAGCCCAGGUAGGUCGCGGUUCCGCCC [#2 Same State - Arginine B Attempt #26 (HarryS)],0.157 µM,0.107 µM,0.167 µM,0.146 µM,0.133 µM
UUGGCCCGGCCGGAAGGCCGGGCCUGCGAGCGAGGACCGGUACGGCCGCCACUCGGCGCAGUGAUGUUGCGUGGCCGCAAGGCCG [#2 Exclusion - Tryptophan A Attempt #1 (HarryS)],0.37 µM,0.337 µM,0.439 µM,0.581 µM,0.874 µM
GCCGUACGCAUGGAUACCAGCAAGUAUAUAUGCUAGUGAUGUUAGCGCUAUGCGAUGCGGUGCCCUUGGCAGCCAUGCGUACGGC,0.129 µM,0.0852 µM,0.105 µM,0.106 µM,0.102 µM
CGCAGUGAUGUUGCGAGUAGCUACAGGGAAGGAGCGCGCUAGUGCGCAGGUAGGUCGCCCACGCAGUGAUGUUGCGUCAUAGGGU [Exclusion Arg A GF8],0.139 µM,0.114 µM,0.114 µM,0.137 µM,0.109 µM
GGAUAACAGGCAGGAUAUGCUUAGUAGUAAGGCCAUAUAUACGUAUAGAGUGAUGUUUUGUACAAGGCAGAAGGGCUAAAUCCAU [FMN B Excl V2 (+4G)],0.536 µM,0.24 µM,0.421 µM,0.393 µM,0.254 µM
AGACUACCACACUGUCAAUAGACAGUGUACUAGGAUAUGCUGAUAAGCAGAAGGAGUGAUGUUCCUUGGUAGUCAAUAAAAUAAU [FmnAX 13 U28+U67],0.357 µM,0.237 µM,0.258 µM,0.268 µM,0.238 µM
UAAUCCUAGUGAUAAUAAUCAAGUGGUGGACGAGGACCGGUACGGCCGCCACUCGAAAAUGCAGUGAUGUUGUAAUCCGGAUAAU [Exclusion - Tryptophan A (Freestyle 4)],0.627 µM,0.701 µM,0.878 µM,0.771 µM,0.581 µM

Sequence,apparent KD of K4 kissing-loop reporter (input ligand: FMN 200 uM),apparent KD of K4 kissing-loop reporter (input ligand: arginine 13.2 mM),apparent KD of K4 kissing-loop reporter (input ligand: none),apparent KD of K4 kissing-loop reporter [1],apparent KD of K4 kissing-loop reporter [2]
UAUUAAUAUUUUUCAGUGAUGUUAAUUGAUACCAGCCCGAAACCGGGCCCUUGGCAGCGAGUGAUGUUGGUUGUCAGCAUAAAUA [KL-XTheo-A13],0.86 µM,0.596 µM,0.836 µM,0.676 µM,0.667 µM
AGGCACGAGCAAGGAUAUCGAGUAGAGUGAUGUUCUGCCUGGGUUGGCUCGCAAGAGCCUUCUCAGCGAGAAGGUGCUCGUGCCU [#2 Same State - FMN A Attempt #18 (HarryS)],0.176 µM,0.602 µM,0.946 µM,0.595 µM,0.64 µM
GGGAGUAGUGCGGCCGCCACUGAGAAAGAAGAAGAAUAUAGUGAUGUUAUAUAGGAAUAAAAGAAUAGGACCGGGCAUUAGAUUU [SSTRyptB.S],0.165 µM,0.245 µM,0.269 µM,0.215 µM,0.159 µM
GGAUCCGCCAGUGAUGUUGGAGAAAACUCCAAGGAUAUGACGAAAGUCAGAAGGUGGUAGACUGGACAAAGUCCGGUCGGAUCCA [FmnA 26 #SwitchBubble #K4Early],0.761 µM,0.331 µM,0.932 µM,0.157 µM,0.442 µM
UGAGUUUGAGUGAUGUUCAGGCAUUGGUACGAGGAUAUCGAGGAGUUGAGAAGGCGUACUGCUCAACUUUGUAUGAAUACAUACA [FMN A Ex t2b],0.259 µM,0.0734 µM,0.106 µM,0.117 µM,0.103 µM
UUUAUUAAGACGGCCGCCACUGAUUCAUAGUGAUGUUAUGAUAUAAUUUUAGUGAUGUGCAUUAGCAGGACCGGGUCAAUUAUUA [#28 K4 Tryptophan B Exclusion],0.125 µM,0.108 µM,0.12 µM,0.0947 µM,0.101 µM
GCUAUGGUAGGAAGGAGCGCGGACGAUAUUUAUCGAGUGAUGUUCGAAUAAUUAAAUAAAACGCAGGUAGGUCGCCUACUAUAGC [Arginine B K4 27],0.108 µM,0.113 µM,0.0999 µM,0.102 µM,0.094 µM
CGGUAGUCUAUAGGGUCCAGUGAUGUUGGACAGGAUAUGCUACGCCGCAGAAGGGUCCAACUGGUUGUGAAGUUGGCUACUAGGC [Somaaxe],0.144 µM,0.2 µM,0.168 µM,0.147 µM,0.189 µM
AUGUAUGAAUUAGGAUAUCGUUAGCCUUUCAUAUAUAUGAUAAAUGGAUAUGUCGUAGUGAUGUUACGAGAAGGAGUGUGGAGUA [KL-XFMN-B8],0.0493 µM,0.0529 µM,0.0382 µM,0.0646 µM,0.0305 µM
GUUGCAGCCCGUGAUACCAGCAUCGGUCGCCGGGUCCAGUGAUGUUGGGCUUGCGUUCUAUGCCCUUGGCAGCGCGGCCUGACAG [Qulaanar],0.415 µM,0.104 µM,0.174 µM,0.393 µM,0.415 µM
UGUCAUUGGUCGGCCGCCACUUCAUGUAGAGUGAUGUUCUGUAAGACGGAUCGAAAGAUCUGUCGAAGGACCGGGACCGAUGACU [FiskerMod 13 - Jieux - Same State - Tryptophan B],1.09 µM,0.303 µM,0.855 µM,0.868 µM,0.326 µM
AUUUGUUUAUGCGAUACCAGACUAAGCAGUGAUGUUGCUUUUAUUUUUGAAUUUUAAAUAGUCCCUUGGCAGCGCUAUGUCUGUA [#06 K4 Theophylline B Same State],0.127 µM,0.2 µM,0.183 µM,0.217 µM,0.119 µM
GAGGUACAGGCGGCCGCCACUAGUGAUGUUAGUGAUAAAAGAUAUAGUAAAUAUCGGCAUGUAGAUAGGACCGGGCCUGAUGGAG [ptvcmullin],0.234 µM,0.214 µM,0.234 µM,0.234 µM,0.209 µM
GUUACGCAUGGAAGGAGCGCACUCCGGUUGAUCGACACAGUGAUGUUGUGGUUCAUUCGAAUGCAGGUAGGUCGCCAUGUGUAAC [Ex Arginine B K4 15],0.808 µM,0.593 µM,0.847 µM,0.886 µM,0.804 µM
AGAUACUUUAUCGCUAGAGGCAUUGCAGAUACCAGCCUAUCUAGAGGCCCUUGGCAGCUGGAGUGAUGUUUCGGCUUAGCUAAAG [theeternabot_exclusion_KL_Theo_A_32],0.402 µM,0.317 µM,0.323 µM,0.348 µM,0.393 µM
AGACUACUGAUAGGAUAUAACAUACUACUCGUAUACCGAAAGGUAUACGAGACCCUUCUAGUGAUGUUAGAAGGGUCGGUAGUCA [Omei KL FMN B Exc B v8],0.0875 µM,0.0701 µM,0.0681 µM,0.0686 µM,0.0747 µM
GGUGCGGGCUCGGCCGCCACUCCCUCCUGCCGUAAGGUGGGAUACCGAGUGAUGUUCGGUUGGAGGAGGACCGGGAGCCCGUGCC [#2 Exclusion - Tryptophan B Attempt #16 (HarryS)],0.131 µM,0.102 µM,0.114 µM,0.11 µM,0.125 µM
GGCAUGCGUAGAGUGAUGUUCUAAGAUGAUACCAGUGCGGAAACGCACCCUUGGCAGCAUCUGACUGGCAUGCCGGCGAAAGCCU,0.871 µM,0.811 µM,1.24 µM,0.77 µM,0.982 µM
CUUGAUGGAAACAUCGAGUAGAUUACUGAUACCAGUAUCGAUAGAUACCCUUGGCAGCAGAAUCAGUGAUCACGAGUGAUGUUCG [Ex Theophylline A K4 8],0.525 µM,0.441 µM,0.529 µM,0.451 µM,0.484 µM
UAUUAAUAAUUAUUCUAGUGAUGUUAGAUACGAGGACCGGUACGGCCGCCACUCGCUUAUUGGUUUAUAAAUUUUAUAUUAUUUA [JR_SSTryptoA_Sub017],0.185 µM,0.207 µM,0.186 µM,0.208 µM,0.164 µM
GUCUCAAAAGAGGCAAGCACUCACGAGGACAAGGAUAUCAUAUCAAUGAGAAGGUGUCCUCGUCCUCAGUGAUGUUGAGGAGUGC [Omei KL FMN A SS E v4],0.41 µM,0.2 µM,0.247 µM,0.233 µM,0.257 µM
